Source: PMC4593522, “Development of a Radiolabeled Peptide-Based Probe Targeting MT1-MMP for Breast Cancer Detection” (PLoS ONE, 2015)
Square brackets hold non-standard residues; d marks the D form. Peptide text beside a SMILES is read from it. * marks the point of attachment. HYNIC = NNc1ccc(C(=O)*)cn1; AEEA = NCCOCCOCC(=O)O

Legend:
Assay type in all cases: physicochemical
[1] = Partition coefficient (Log P), n-octanol / phosphate buffer; settings: shake-flask, equal volume mixture of n-octanol and phosphate buffer (25 mM, pH = 7.4); mean ± SD
Description: [^99mTc]-(HYNIC-AF7P)(tricine)(TPPTS) was prepared in two steps. First, HYNIC-AF7P was synthesized (Fig 1) and reacted with Na^99mTcO4 in the presence of excess tricine and SnCl2 to form the intermediate [^99mTc]-(HYNIC-AF7P)(tricine)2, which was then allowed to react with TPPTS to form the ternary ligand complex [^99mTc](HYNIC-AF7P)(tricine)(TPPTS). […] The HPLC retention time was 9.2 min for [^99mTc](HYNIC-AF7P)(tricine)(TPPTS) and the specific activity of final product was 1200 mCi/μmol. The partition coefficient of [^99mTc]-(HYNIC-AF7P)(tricine)(TPPTS) was determined in an equal volume mixture of noctanoland phosphate buffer (25 mM, pH = 7.4). Log P value of [^99mTc]-(HYNIC-AF7P)(tricine)(TPPTS)was -2.39±0.06.

[2] = In vitro solution stability in the presence of excess cysteine (radio-HPLC); settings: 1 mg/mL cysteine, pH = 7.4, 37°C, mean ± SD
Description: (§1) HYNIC-AF7p solution (20 μL, 60 μg/mL in H2O), of tricine solution (100 μL, 100 mg/mL in 25 mM succinate buffer, pH 5.0), SnCl2 solution (10 μL, 3 mg/mL in 0.1 M HCl) and Na^99mTcO4 (100 μL, 370 MBq) in saline were added into a 5 mL Eppendorf tube. The reaction mixture was kept at room temperature for 10 min. To the reaction mixture above was added 100 μL of the TPPTS solution (50 mg/mL in 25 mM succinate buffer, pH 5.0). The vial containing the reaction mixture was sealed, cramped, and heated at 90°C for 30 min. After cooling to room temperature, sample was analyzed by radio-HPLC. The radio-HPLC method used a HP Hewlett Packard Series 1100 HPLC system equipped with a Radioflow Detector LB509 and a reversed-phase Zorbax SB-C18 column (4.6 mm × 250 mm, 5 μm). The flow rate was 1 mL/min. The gradient mobile phase started with 90% solvent A (0.1% TFA in water) and 10% solvent B (0.1% TFA in acetonitrile) to 30% solvent A and 70% solvent B at 24 min to 0% solvent A and 100% solvent B at 27 min, followed with 90% solvent A and 10% solvent B at 30 min. […]
(§2) 100 μL of [^99mTc]-(HYNIC-AF7P)(tricine)(TPPTS) was added to either 0.9% physiological saline or 1 mg/mL cysteine solution. […] After 1 h, 2 h, 3 h, 4 h, 5 h and 6 h incubation, the radiochemical purity for [^99mTc]-(HYNIC-AF7P)(tricine)(TPPTS) at each time point was detected by radio-HPLC as described above.

[3] = In vitro solution stability in saline (radio-HPLC); settings: 0.9% physiological saline, 37°C, 100 μL tracer in 400 μL total, mean ± SD
Description: as §1, §2

With CC(C)C[C@H](NC(=O)[C@H](Cc1ccccc1)NC(=O)[C@@H](NC(=O)[C@H](CCCCN)NC(=O)[C@@H](NC(=O)[C@H](CC(N)=O)NC(=O)[C@H](Cc1c[nH]cn1)NC(=O)[C@H](CC(C)C)NC(=O)[C@H](Cc1c[nH]cn1)NC(=O)[C@H](CCCCN)NC(=O)[C@H](Cc1c[nH]c2ccccc12)NC(=O)[C@H](Cc1c[nH]cn1)NC(=O)c1ccc(NN)nc1)[C@@H](C)O)[C@@H](C)O)C(=O)NCCOCCOCC(=O)O [[^99mTc]-(HYNIC-AF7P)(tricine)(TPPTS), metal not drawn] ({HYNIC}-HWKHLHNTKTFL[AEEA]-OH) as the compound, how does the “Log P value (partition coefficient)” value [1] read?
The value was -2.39±0.06.

And the “original form (radiochemical purity) in solution containing excess cysteine” value ([2]; after 6 hours incubation)?
Its value is 94.2 ±1.72%.

And the “original form (radiochemical purity) in solution containing excess cysteine” value ([2]; at the beginning)?
The value was 96.8 ± 1.52%.

What about the “original form (radiochemical purity) in saline” value ([3]; after 6 hours incubation) of the same compound?
The value was 93.5 ± 2.27%.

What about the “original form (radiochemical purity) in saline” value ([3]; at the beginning) of the same compound?
Its value is 96.8 ± 1.12%.
